B1: INTS3 (parent)
chain: EEITEESLEESVGKPLYLIFRNLC
B2: STK38L (parent)
chain: FCIDSENRIGNSGVEEIKGHPFFE

Variants of: B1
Test: protein stability index of a GFP-peptide fusion (GPS, HEK-293T) (PSI 1-6); higher = more stable
Details: c terminus: a fixed tail appended
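Note: lentivirally expressed fusions sorted by FACS into six bins by GFP to DsRed ratio, PSI derived from sequencing read proportions per bin multiplied by bin number.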

Row | Variant | protein stability index
1 | L23G | 3.62
2 | L23R | 3.47
3 | L23W | 2.85
4 | L23D | 3.75
5 | L23N | 3.47
6 | L23Y | 2.68
7 | L18F | 2.3
8 | L18C | 2.7
9 | L18G | 3.71
10 | L18P | 3.69
11 | L18M | 3.38
12 | L18S | 3.37
13 | G13D | 2.88
14 | G13S | 2.36
15 | G13Q | 3.11
16 | G13A | 2.88
17 | G13T | 2.46
18 | G13W | 1.79
19 | G13L | 2.23
20 | E1S | 2.58
21 | E1M | 2.45
22 | E1C | 2.29
23 | E1T | 2.6
24 | E1W | 2.52

Row | Variant | protein stability index
25 | E1H | 2.67
26 | E1Q | 3.06
27 | E1L | 2.46
28 | E1V | 2.31
29 | I3H | 3.67
30 | I3R | 2.94
31 | I3V | 3.16
32 | I3F | 2.79
33 | I3A | 3.14
34 | I3M | 3.29
35 | C24N | 3.33
36 | C24Y | 2.32
37 | C24R | 3.02
38 | C24M | 2.7
39 | C24A | 2.87
40 | C24P | 2.62
41 | E9S | 2.3
42 | E9R | 2.41
43 | E9L | 2.93
44 | E9D | 2.77
45 | E9C | 2.25
46 | E9M | 2.28
47 | S11R | 2.71
48 | S11Y | 2.58

Row | Variant | protein stability index
49 | S11A | 2.57
50 | S11E | 2.55
51 | S11T | 2.79
52 | S11H | 2.56
53 | S11W | 2.4
54 | S11K | 2.61
55 | S11N | 2.96
56 | S11V | 2.32
57 | S11F | 2.57
58 | S11P | 2.36
59 | S11D | 3.03
60 | P15I | 2.17
61 | P15H | 2.24
62 | P15G | 2
63 | P15Y | 1.74
64 | P15C | 2.05
65 | P15E | 2.14
66 | P15Q | 1.52
67 | P15N | 2.29
68 | N22A | 2.26
69 | N22C | 2.83
70 | N22W | 1.68
71 | N22E | 2.8
72 | N22Q | 2.42

Row | Variant | protein stability index
73 | N22F | 2.94
74 | N22Y | 2.06
75 | E10T | 2.55
76 | E10D | 3.09
77 | E10W | 2.21
78 | E10M | 2.24
79 | E10H | 2.25
80 | E10R | 2.24
81 | E10K | 2.5
82 | E10C | 1.96
83 | L16H | 3.09
84 | L16G | 3.38
85 | L16M | 2.92
86 | L16W | 2.41
87 | L16I | 2.56
88 | L16F | 3.35
89 | L16P | 3.52
90 | L16Q | 3.69
91 | R21E | 2.64
92 | R21H | 3.08
93 | R21S | 2.95
94 | R21V | 2.09
95 | R21N | 2.96
96 | R21P | 3.53

Row | Variant | protein stability index
97 | L8V | 3.15
98 | L8G | 3.21
99 | L8Y | 2.97
100 | L8E | 3.2
101 | L8S | 3.48
102 | L8A | 3.46
103 | E5T | 2.37
104 | E5Y | 2.03
105 | E5G | 2.09
106 | E5A | 2.4
107 | E5M | 1.89
108 | E5Q | 2.37
109 | E5S | 2.5
110 | I19D | 3.89
111 | I19C | 3.62
112 | I19H | 3.85
113 | I19T | 3.41
114 | I19N | 3.92
115 | I19P | 4.17
116 | I19W | 2.91
117 | I19F | 2.3
118 | I19K | 3.66
119 | I19E | 3.9
120 | F20M | 3.1

Row | Variant | protein stability index
121 | F20I | 2.88
122 | F20Y | 2.71
123 | F20A | 2.82
124 | F20S | 3.77
125 | E6M | 2
126 | E6N | 2.29
127 | E6W | 1.96
128 | E6V | 1.76
129 | E6Y | 2.39
130 | E6K | 1.8
131 | E6P | 2.49
132 | Y17H | 3.69
133 | Y17K | 4.07
134 | Y17A | 3.32
135 | Y17F | 2.73
136 | Y17S | 2.85
137 | Y17L | 2.28
138 | E2Q | 2.52
139 | E2K | 2.02
140 | E2R | 2.93
141 | E2L | 2.11
142 | E2A | 1.98
143 | V12K | 3.54
144 | V12A | 3.26

Row | Variant | protein stability index
145 | V12I | 2.51
146 | V12S | 3.54
147 | V12P | 2.94
148 | V12N | 2.95
149 | V12D | 3.63
150 | V12Q | 3.34
151 | V12M | 2.26
152 | S7F | 2.33
153 | S7M | 2.47
154 | S7A | 2.88
155 | S7P | 3.02
156 | S7Y | 2.15
157 | K14L | 3.3
158 | K14V | 2.6
159 | K14N | 3.52
160 | K14R | 3.31
161 | K14S | 2.94
162 | T4K | 2.46
163 | T4W | 1.68
164 | T4P | 2.77
165 | T4S | 2.4
166 | T4R | 2.3

Variants of: B2
Test: as above
Details: c terminus: a fixed tail appended

Row | Variant | protein stability index
167 | I17Y | 2.18
168 | I17H | 2.16
169 | I17K | 2.35
170 | I17P | 2.54
171 | I17N | 2.88
172 | I17Q | 2.53
173 | I17G | 2.38
174 | I17R | 2.1
175 | I17E | 3.47
176 | I17D | 3.1
177 | I17C | 2.84
178 | I17F | 2.36
179 | I17M | 2.79
180 | I17L | 2.61
181 | I17T | 3.17
182 | I17S | 3.17
183 | I17W | 1.67
184 | P21M | 1.94
185 | P21L | 1.42
186 | P21G | 2.54
187 | P21F | 1.7
188 | P21E | 3.52
189 | P21Q | 2.99
190 | P21N | 3.13

Row | Variant | protein stability index
191 | P21V | 2.28
192 | P21W | 1.9
193 | P21R | 2.97
194 | P21K | 2.84
195 | P21D | 4.22
196 | P21C | 2.07
197 | P21A | 2.72
198 | P21T | 2.91
199 | P21H | 2.89
200 | P21Y | 2.25
201 | P21S | 3.73
202 | P21I | 2.46
203 | F23Y | 3.35
204 | F23H | 2.69
205 | F23D | 4.86
206 | F23R | 1.72
207 | F23I | 2.47
208 | F23C | 1.8
209 | F23K | 2.19
210 | F23A | 1.78
211 | F23N | 4.2
212 | F23T | 1.46
213 | F23M | 1.07
214 | F23S | 1.93

Row | Variant | protein stability index
215 | F23V | 1.85
216 | F23W | 2.02
217 | F23P | 4.07
218 | F23L | 2.52
219 | G19M | 1.67
220 | G19W | 2.27
221 | G19Q | 2.37
222 | G19V | 2.09
223 | G19C | 1.68
224 | G19A | 2.15
225 | G19K | 2.16
226 | G19Y | 1.99
227 | G19P | 1.99
228 | G19N | 2.68
229 | G19R | 1.63
230 | G19E | 3.45
231 | G19S | 2.43
232 | G19I | 1.54
233 | G19F | 1.8
234 | G19L | 1.87
235 | G19H | 2.13
236 | G19T | 2.19
237 | G19D | 3.21
238 | E24G | 1.59

Row | Variant | protein stability index
239 | E24N | 2.19
240 | E24H | 1.54
241 | E24S | 2.15
242 | E24Y | 1.69
243 | E24D | 2.24
244 | E24W | 1.61
245 | E24Q | 1.75
246 | E24V | 1.71
247 | E24L | 4
248 | E24I | 2.72
249 | E24C | 2.7
250 | E24M | 1.45
251 | E24T | 1.21
252 | E24F | 1.74
253 | E24K | 1.72
254 | E24P | 2.01
255 | E24A | 1.92
256 | F22C | 3.81
257 | F22P | 4.32
258 | F22E | 4.79
259 | F22L | 3.74
260 | F22T | 4.5
261 | F22Q | 3.1
262 | F22H | 4.33

Row | Variant | protein stability index
263 | F22A | 3.58
264 | F22G | 4.37
265 | F22Y | 2.42
266 | F22N | 4.5
267 | F22R | 4.21
268 | F22K | 4.49
269 | F22D | 5.23
270 | F22V | 4.11
271 | F22I | 3.65
272 | H20I | 2.95
273 | H20Q | 3.48
274 | H20Y | 2.47
275 | H20A | 3.79
276 | H20K | 3.41
277 | H20M | 2.71
278 | H20G | 3.09
279 | H20N | 2.67
280 | H20T | 3.83
281 | H20R | 2.35
282 | H20F | 2.62
283 | H20P | 3.45
284 | H20C | 1.54
285 | H20V | 3.19
286 | H20L | 2.69

Row | Variant | protein stability index
287 | H20D | 2.53
288 | H20E | 4.12
289 | E15R | 2.08
290 | E15M | 2.51
291 | E15N | 1.64
292 | E15S | 1.96
293 | E15Q | 1.57
294 | E15T | 2.08
295 | E15Y | 1.92
296 | E15P | 1.98
297 | E15V | 2.52
298 | E16M | 2.28
299 | E16A | 3.21
300 | E16T | 2.35
301 | E16V | 1.87
302 | E16I | 1.55
303 | E16P | 2.42
304 | E16R | 2.3
305 | E16F | 2.25
306 | E16G | 2.67
307 | E16N | 2.06
308 | E16Y | 1.51
309 | E16H | 2.22
310 | E16S | 1.85

Row | Variant | protein stability index
311 | E16C | 2.23
312 | E16Q | 2.54
313 | E16D | 1.89
314 | E16K | 1.98
315 | E16W | 1.44
316 | E16L | 1.79
317 | K18N | 2.8
318 | K18I | 2.31
319 | K18Q | 2.2
320 | K18E | 3.07
321 | K18F | 2.12
322 | K18A | 2.48
323 | K18V | 2.63
324 | K18C | 2.82
325 | K18S | 3
326 | K18Y | 2.16
327 | K18D | 4.12
328 | K18G | 2.36
329 | K18W | 2.47
330 | K18L | 2.89
331 | K18H | 2.34
332 | K18T | 2.6
333 | K18M | 1.65
334 | K18P | 3.07

— the supplement of paper PMC10567573
